From PMC8905165

Biological target: GMPCPP microtubules containing 7% rhodamine-tubulin
Test: single-molecule TIRF microscopy on immobilised microtubules; GMPCPP microtubules held on the coverslip by anti-β-tubulin antibodies, motors in solution (CENP-E483-2mNeon 50 nM, CENP-E483LZ-2mNeon 5 nM, CENP-E754-2mNeon 3.5 nM, CENP-EFL-mNeon 12.5 nM; landing rates at 3.5 nM); 80 mM PIPES pH 6.9, 5 mM MgCl2, 2 mM ATP, 1 mM DTT, oxygen scavenger mix; 30°C; residency time is the decay constant of a single-exponential fit

landing rate (events µm^−1 min^−1)	residency time on the microtubule	Substance
0.147	37.1 s	full-length human CENP-E-mNeonGreen, Q02224 1-2701
	6.36 s	CENP-E483LZ-2mNeon (from UniProt Q02224 1-483)
